B1: SI-75P8 (other)
chain 1: EVQLQESGGGLVQAGDSLSLSCLVSGRSFNSYTMGWFRQAPGKEREFVAAILWSGPTTYYADSVKGRFTISRDNAKNTVYLQMNSLKPEDTAVYYCAAALGVLVLAPGNVYSYWGQGTQVTVSSGGGGSGGGGSQVQLQESGGRLVQPGEPLSLTCKTSGIDLSSNAIGWVRQAPGKGLEWIGVIFGSGNTYYASWAKGRFTISRSTSTVYLKMNSLRSEDTAIYYCARGGYSSDIWGQGTLVTVSSASTKGPSVFPLAPSSKSTSGGTAALGCLVKDYFPEPVTVSWNSGALTSGVHTFPAVLQSSGLYSLSSVVTVPSSSLGTQTYICNVNHKPSNTKVDKRVEPKSCDKTHTCPPCPAPEAAGGPSVFLFPPKPKDTLMISRTPEVTCVVVDVSHEDPEVKFNWYVDGVEVHNAKTKPREEQYNSTYRVVSVLTVLHQDWLNGKEYKCAVSNKALPAPIEKTISKAKGQPREPQVYTLPPSRDELTKNQVSLSCAVKGFYPSDIAVEWESNGQPENNYKTTPPVLDSDGSFFLVSKLTVDKSRWQQGNVFSCSVMHEALHNHYTQKSLSLSPGGGGGSGGGGSQVQLQQSGPGLVKPSETLSITCTVSGFSLTNYGVHWIRQAPGKGLEWLGVIWSGGNTDYNTPFTSRFTITKDNSKNQVYFKLRSVRADDTAIYYCARALTYYDYEFAYWGQGTLVTVSSGGGGSGGGGSGGGGSGGGGSEIVLTQSPSTLSVSPGERATFSCRASQSIGTNIHWYQQKPGKPPRLLIKYASESISGIPDRFSGSGSGTEFTLTISSVQSEDFAVYYCQQNNNWPTTFGPGTKLTVL
chain 2: QVQLVQSGGGLVQAGGSLSLSCAFSGRTFSMYTMGWFRQAPGKEREFVAANRGRGLSPDIADSVNGRFTISRDNAKNTLYLQMDSLKPEDTAVYYCAADLQYGSSWPQRSSAEYDYWGQGTTVTVSSGGGGSGGGGSDPQLTQSPSSLSATVGQRVTINCQSSQSVAKNNNLAWFQQKPGKPPKLLIYSASTLAAGVPSRFSGSGSGTQFTLTITRVQSEDFATYYCSARDSGNIQSFGGGTRVEIKRTVAAPSVFIFPPSDEQLKSGTASVVCLLNNFYPREAKVQWKVDNALQSGNSQESVTEQDSKDSTYSLSSTLTLSKADYEKHKVYACEVTHQGLSSPVTKSFNRGECGGDKTHTCPPCPAPEAAGGPSVFLFPPKPKDTLMISRTPEVTCVVVDVSHEDPEVKFNWYVDGVEVHNAKTKPREEQYNSTYRVVSVLTVLHQDWLNGKEYKCAVSNKALPAPIEKTISKAKGQPREPQVYTLPPSRDELTKNQVSLWCLVKGFYPSDIAVEWESNGQPENNYKTTPPVLDSDGSFFLYSKLTVDKSRWQQGNVFSCSVMHEALHNRFTQKSLSLSPGGGGGSGGGGSQVQLQESGGGLVKPGGSLSLSCAASGFTFSSYWMSWVRQAPGKGLEWVANINRDGSASYYVDSVKGRFTISRDDAKNSLYLQMNSLRAEDTAVYYCARDRGVGYFDLWGRGTLVTVSSGGGGSGGGGSGGGGSQSALTQPASVSGSPGQSITISCTGTSSDVGGYNFVSWYQQHPGKAPKLMIYDVSDRPSGVSDRFSGSKSGNTASLIISGLQADDEADYYCSSYGSSSTHVIFGGGTKVTVL
notes: D1 αEGFR VHH, D2 αHER3 VHH, D3 αCD3* (Fab), D4 αEGFR scFv, D5 αHER3 scFv
B2: SI-75P5 (other)
chain 1: EVQLQESGGGLVQAGDSLSLSCLVSGRSFNSYTMGWFRQAPGKEREFVAAILWSGPTTYYADSVKGRFTISRDNAKNTVYLQMNSLKPEDTAVYYCAAALGVLVLAPGNVYSYWGQGTQVTVSSGGGGSGGGGSEVQLVESGGGLVQPGGSLRLSCAASGFTISTNAMSWVRQAPGKGLEWIGVITGRDITYYASWAKGRFTISRDNSKNTLYLQMNSLRAEDTAVYYCARDGGSSAITSNNIWGQGTLVTVSSASTKGPSVFPLAPSSKSTSGGTAALGCLVKDYFPEPVTVSWNSGALTSGVHTFPAVLQSSGLYSLSSVVTVPSSSLGTQTYICNVNHKPSNTKVDKRVEPKSCDKTHTCPPCPAPEAAGGPSVFLFPPKPKDTLMISRTPEVTCVVVDVSHEDPEVKFNWYVDGVEVHNAKTKPREEQYNSTYRVVSVLTVLHQDWLNGKEYKCAVSNKALPAPIEKTISKAKGQPREPQVYTLPPSRDELTKNQVSLSCAVKGFYPSDIAVEWESNGQPENNYKTTPPVLDSDGSFFLVSKLTVDKSRWQQGNVFSCSVMHEALHNHYTQKSLSLSPGGGGGSGGGGSDVVMTQSPSSVSASVGDRVTITCQASQNIRTYLSWYQQKPGKAPKLLIYAAANLASGVPSRFSGSGSGTDFTLTISDLEPGDAATYYCQSTYLGTDYVGGAFGGGTKLTVLGGGGSGGGGSGGGGSGGGGSEVQLVESGGGLVQPGGSLRLSCTASGFTISSYHMQWVRQAPGKGLEYIGTISSGGNVYYASSARGRFTISRPSSKNTVDLQMNSLRAEDTAVYYCARDSGYSDPMWGQGTLVTVSS
chain 2: QVQLVQSGGGLVQAGGSLSLSCAFSGRTFSMYTMGWFRQAPGKEREFVAANRGRGLSPDIADSVNGRFTISRDNAKNTLYLQMDSLKPEDTAVYYCAADLQYGSSWPQRSSAEYDYWGQGTTVTVSSGGGGSGGGGSDVVMTQSPSTLSASVGDRVTINCQASESISSWLAWYQQKPGKAPKLLIYEASKLASGVPSRFSGSGSGTEFTLTISSLQPDDFATYYCQGYFYFISRTYVNSFGGGTKVEIKRTVAAPSVFIFPPSDEQLKSGTASVVCLLNNFYPREAKVQWKVDNALQSGNSQESVTEQDSKDSTYSLSSTLTLSKADYEKHKVYACEVTHQGLSSPVTKSFNRGECGGDKTHTCPPCPAPEAAGGPSVFLFPPKPKDTLMISRTPEVTCVVVDVSHEDPEVKFNWYVDGVEVHNAKTKPREEQYNSTYRVVSVLTVLHQDWLNGKEYKCAVSNKALPAPIEKTISKAKGQPREPQVYTLPPSRDELTKNQVSLWCLVKGFYPSDIAVEWESNGQPENNYKTTPPVLDSDGSFFLYSKLTVDKSRWQQGNVFSCSVMHEALHNRFTQKSLSLSPGGGGGSGGGGSDIQMTQSPSTLSASVGDRVTITCQASQSISSHLNWYQQKPGKAPKLLIYKASTLASGVPSRFSGSGSGTEFTLTISSLQPDDFATYYCQQGYSWGNVDNVFGGGTKVTVLGGGGSGGGGSGGGGSGGGGSEVQLLESGGGLVQPGGSLSLSCAASGFSFSSGYDMCWVRQAPGKGLEWIACIAAGSAGITYDANWAKGRFTISRDNSKNTLYLQMNSLRAEDTAVYYCARSAFSFDYAMDLWGQGTLVTVSS
notes: penta-miniGNC; D1 αEGFR VHH, D2 αHER3 VHH, D3 αCD3 (Fab), D4 α4-1BB, D5 αPD-L1
B3: human CD3 (receptor)
chain 1: DGNEEMGGITQTPYKVSISGTTVILTCPQYPGSEILWQHNDKNIGGDEDDKNIGSDEDHLSLKEFSELEQSGYYVCYPRGSKPEDANFYLYLRARVCENCMEMD
chain 2: FKIPIEELEDRVFVNCNTSITWVEGTVGTLLSDITRLDLGKRILDPRGIYRCNGTDIYKDKESTVQVHYRMCQSCVELDPATVA
notes: also called His-tagged human CD3; human CD3 (Acro CDD-H52W1)

Experiments:
human CD3 = molecular target: B3; test: BLI (Octet), binder on AHC sensor, 100 nM human CD3, 1:1 fit
human EGFR [1] = molecular target: T1, human EGFR (human, UniProt P00533 25-645, limits assumed); test: BLI (Octet), binder on AHC sensor, 200 nM human EGFR, 1:1 fit; molecule has two EGFR-binding domains, same value printed under D1 and D4
T1 construct: Soluble antigen in Octet; construct not described

human HER3 = molecular target: T2, human HER3 (human, UniProt P21860 20-643); test: BLI (Octet), binder on AHC sensor, 200 nM human HER3, 1:1 fit; molecule has two HER3-binding domains, same value printed under D2 and D5
T2 construct: Soluble antigen in Octet; bought; also called human HER3 (Acro ER3-H5223)

human PD-L1 = molecular target: T3, human PD-L1 (human, UniProt Q9NZQ7 19-238); test: BLI (Octet), binder on AHC sensor, 20 nM human PD-L1, 1:1 fit
T3 construct: Soluble antigen in Octet; bought; also called human PD-L1 (Acro PD1-H5229)

human EGFR [2] = molecular target: T1, human EGFR; test: BLI (Octet), binder on AHC sensor, 200 nM human EGFR, 1:1 fit
human 4-1BB = molecular target: T4, human 4-1BB (human, UniProt Q07011 24-186, limits assumed); test: BLI (Octet), binder on AHC sensor, 400 nM human 4-1BB, 1:1 fit
T4 construct: Soluble antigen in Octet; construct not described

SI-49P9 = molecular target: T5, SI-49P9; test: BLI (Octet); conditions not stated
T5 construct: penta-miniGNC; D1 αCD3, D2 αCD19, D3 NKG2D receptor dimer, D4 41BBL, D5 αPD-L1
T5 sequence (chain, as listed by the source, chain 1 of 2): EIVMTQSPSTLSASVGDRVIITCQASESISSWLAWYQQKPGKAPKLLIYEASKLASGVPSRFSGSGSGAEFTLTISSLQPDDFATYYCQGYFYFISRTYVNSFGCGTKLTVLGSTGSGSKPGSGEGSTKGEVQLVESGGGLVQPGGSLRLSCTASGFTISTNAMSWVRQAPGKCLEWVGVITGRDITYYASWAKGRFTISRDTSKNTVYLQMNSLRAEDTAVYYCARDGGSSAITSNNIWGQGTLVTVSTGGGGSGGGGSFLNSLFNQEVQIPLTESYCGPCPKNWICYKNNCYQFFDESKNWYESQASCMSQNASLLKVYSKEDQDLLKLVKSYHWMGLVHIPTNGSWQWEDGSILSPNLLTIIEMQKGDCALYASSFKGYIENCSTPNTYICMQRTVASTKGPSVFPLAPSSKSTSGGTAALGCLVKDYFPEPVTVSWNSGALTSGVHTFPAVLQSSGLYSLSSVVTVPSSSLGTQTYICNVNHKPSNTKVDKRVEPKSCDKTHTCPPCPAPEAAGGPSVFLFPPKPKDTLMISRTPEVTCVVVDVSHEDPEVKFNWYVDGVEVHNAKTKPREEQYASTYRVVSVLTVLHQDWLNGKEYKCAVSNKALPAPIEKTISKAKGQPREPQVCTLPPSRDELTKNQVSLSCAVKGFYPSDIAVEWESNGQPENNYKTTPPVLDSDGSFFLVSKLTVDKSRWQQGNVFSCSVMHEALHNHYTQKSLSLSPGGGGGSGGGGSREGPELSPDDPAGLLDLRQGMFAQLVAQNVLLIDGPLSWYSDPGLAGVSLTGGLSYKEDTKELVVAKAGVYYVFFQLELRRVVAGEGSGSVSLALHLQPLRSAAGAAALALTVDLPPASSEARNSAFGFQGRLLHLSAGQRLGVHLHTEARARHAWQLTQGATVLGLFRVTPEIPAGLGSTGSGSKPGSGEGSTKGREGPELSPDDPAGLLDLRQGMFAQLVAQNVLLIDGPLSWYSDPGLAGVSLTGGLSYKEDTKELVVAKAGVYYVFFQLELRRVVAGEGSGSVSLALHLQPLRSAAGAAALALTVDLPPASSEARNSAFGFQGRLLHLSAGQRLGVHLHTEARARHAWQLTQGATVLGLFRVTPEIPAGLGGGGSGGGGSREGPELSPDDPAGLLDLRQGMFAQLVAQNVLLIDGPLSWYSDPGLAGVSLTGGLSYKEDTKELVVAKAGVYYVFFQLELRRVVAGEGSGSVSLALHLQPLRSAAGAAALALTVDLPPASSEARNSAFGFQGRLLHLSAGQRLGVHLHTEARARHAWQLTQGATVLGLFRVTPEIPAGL
T5 sequence (chain, as listed by the source, chain 2 of 2): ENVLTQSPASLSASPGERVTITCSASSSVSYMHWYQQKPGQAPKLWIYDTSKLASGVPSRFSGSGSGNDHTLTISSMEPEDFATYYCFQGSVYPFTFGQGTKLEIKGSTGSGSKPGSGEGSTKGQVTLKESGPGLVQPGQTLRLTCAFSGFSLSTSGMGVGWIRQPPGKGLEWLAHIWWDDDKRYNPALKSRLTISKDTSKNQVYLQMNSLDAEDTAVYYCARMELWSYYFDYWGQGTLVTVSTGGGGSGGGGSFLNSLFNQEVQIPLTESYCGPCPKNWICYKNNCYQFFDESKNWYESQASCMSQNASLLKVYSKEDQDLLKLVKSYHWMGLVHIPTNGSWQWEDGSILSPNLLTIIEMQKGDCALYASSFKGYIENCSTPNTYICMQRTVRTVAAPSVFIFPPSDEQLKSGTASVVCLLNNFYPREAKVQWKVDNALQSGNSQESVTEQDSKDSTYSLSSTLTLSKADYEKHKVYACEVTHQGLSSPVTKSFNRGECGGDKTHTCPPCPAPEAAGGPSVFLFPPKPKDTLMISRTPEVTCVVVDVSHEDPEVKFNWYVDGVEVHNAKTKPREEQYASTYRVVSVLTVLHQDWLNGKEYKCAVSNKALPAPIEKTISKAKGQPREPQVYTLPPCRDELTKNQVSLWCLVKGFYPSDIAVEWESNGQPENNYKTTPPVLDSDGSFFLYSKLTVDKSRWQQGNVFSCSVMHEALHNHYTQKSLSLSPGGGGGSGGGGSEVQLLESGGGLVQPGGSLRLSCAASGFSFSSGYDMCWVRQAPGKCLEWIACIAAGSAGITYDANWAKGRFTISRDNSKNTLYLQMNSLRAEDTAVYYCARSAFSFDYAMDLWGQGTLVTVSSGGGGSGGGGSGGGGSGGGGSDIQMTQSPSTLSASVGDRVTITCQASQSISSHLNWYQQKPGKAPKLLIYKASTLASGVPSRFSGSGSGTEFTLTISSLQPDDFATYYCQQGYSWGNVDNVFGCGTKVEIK

SI-75P4 = molecular target: T6, SI-75P4; test: BLI (Octet), binder on AHC sensor, 100 nM human antigen, 1:1 fit
T6 construct: penta-miniGNC; D1 αEGFR, D2 αHER3, D3 αCD3 (Fab), D4 41BBL (ligand of the 4-1BB receptor), D5 αPD-L1
T6 sequence (chain, as listed by the source): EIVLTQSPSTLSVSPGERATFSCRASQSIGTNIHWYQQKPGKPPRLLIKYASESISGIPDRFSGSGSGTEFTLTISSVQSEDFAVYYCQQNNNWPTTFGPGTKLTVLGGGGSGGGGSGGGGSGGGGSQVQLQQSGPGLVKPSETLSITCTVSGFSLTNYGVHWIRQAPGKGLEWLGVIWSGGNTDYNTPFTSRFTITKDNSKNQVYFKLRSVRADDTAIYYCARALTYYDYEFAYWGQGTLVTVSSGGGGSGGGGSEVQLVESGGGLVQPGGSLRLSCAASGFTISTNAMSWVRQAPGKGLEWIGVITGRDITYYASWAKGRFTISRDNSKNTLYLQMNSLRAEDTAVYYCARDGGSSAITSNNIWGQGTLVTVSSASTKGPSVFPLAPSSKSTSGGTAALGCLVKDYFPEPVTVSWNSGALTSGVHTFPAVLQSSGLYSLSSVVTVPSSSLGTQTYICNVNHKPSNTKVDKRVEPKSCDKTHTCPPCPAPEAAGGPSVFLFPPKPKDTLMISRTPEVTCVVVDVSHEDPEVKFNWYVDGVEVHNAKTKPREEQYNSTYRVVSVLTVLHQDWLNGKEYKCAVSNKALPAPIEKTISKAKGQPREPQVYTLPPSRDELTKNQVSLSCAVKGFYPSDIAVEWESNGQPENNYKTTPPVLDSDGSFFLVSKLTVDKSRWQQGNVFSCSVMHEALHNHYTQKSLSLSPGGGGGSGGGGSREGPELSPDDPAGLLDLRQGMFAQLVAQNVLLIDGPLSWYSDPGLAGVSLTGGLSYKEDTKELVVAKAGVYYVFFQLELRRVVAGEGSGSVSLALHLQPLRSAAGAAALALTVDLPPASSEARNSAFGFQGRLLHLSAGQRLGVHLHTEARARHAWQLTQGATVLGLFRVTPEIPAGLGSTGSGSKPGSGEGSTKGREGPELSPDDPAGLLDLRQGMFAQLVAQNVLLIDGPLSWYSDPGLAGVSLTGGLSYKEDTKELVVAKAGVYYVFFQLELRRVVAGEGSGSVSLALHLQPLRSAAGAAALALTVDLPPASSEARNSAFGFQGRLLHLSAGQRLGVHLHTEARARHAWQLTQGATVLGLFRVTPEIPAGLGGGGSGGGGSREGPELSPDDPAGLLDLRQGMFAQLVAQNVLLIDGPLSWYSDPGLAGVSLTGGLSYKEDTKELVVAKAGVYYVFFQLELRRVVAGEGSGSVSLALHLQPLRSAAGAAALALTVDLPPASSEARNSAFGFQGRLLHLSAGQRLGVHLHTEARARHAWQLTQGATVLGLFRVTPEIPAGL

Row | Binder | Kd (human CD3) [nM] | Kd (human EGFR [1]) [nM] | Kd (human HER3) [nM] | Kd (human PD-L1) [nM] | Kd (human EGFR [2]) [nM] | Kd (human 4-1BB) [nM] | Kd (SI-49P9) [nM] | Kd (SI-75P4) [nM]
1 | B1 | 44.1 | 6.22 | 0.786 |  |  |  |  | 
2 | B2 | 26.1 |  |  | 3.25 | 23.5 | 23.3 |  | 
3 | B3 |  |  |  |  |  |  | 29.8 | 22.7
